Patent US20230272011A1 (AVACTA LIFE SCIENCES, published 2023)

Experiments:
human serum albumin [1] = target: T1, human serum albumin (human, UniProt P02768 25-609); assay: Biacore, immobilised HSA, pH 7.4
T1 construct: mature; Bought protein; biotinylated in the Octet and HTRF assays; also called HSA; HuSA
Method: Affinities for mouse, human, and cynomolgus serum were also measured at pH 7.4 for four (4) AFFIMER® binders using surface plasmon resonance (SPR) (FIG. 5, Table 5). […] A concentration titration of AFFIMER® monomers was run as analyte at a flow rate of 30 μl/min or 60 μl/min. Fc2-1, Fc3-1 and Fc4-1 kinetic data was blank subtracted and fit to a 1:1 Langmuir binding model (BIAcore Evalution software; GE) to calculate KD values.

human serum albumin [2] = target: T1, human serum albumin; assay: Octet biolayer interferometry, pH 6.0
Method: (§1) Biotinylated antigen was captured onto SA sensors at 1 μg/ml for 600 seconds in a buffer comprising PBS-T (0.01% Tween 20)+1% casein at either pH 6.0 or 7.4. Association was carried out for 300 seconds and dissociation for 600 seconds, and regeneration was performed using 10 mM glycine pH 1.5 (GE Healthcare) for 3×5 seconds. All steps were carried out at 1000 rpm and 25° C. Purified AFFIMER® polypeptide in two-fold serial dilutions was analyzed at a starting concentration of approximately 10× K_{D value}. Kinetics analyses were carried out using the Octet data analysis software, subtracting the reference sensor (loaded with antigen), aligning the Y-axis to baseline, and using inter-step correction to align association to dissociation. Savitzky-Golay filtering was applied and the data processed. Analysis of the data was carried out with a 1:1 model, global fit, Rₘₐₓ unlinked by sensor.
(§2) AFFIMER® polypeptides were incubated with AcTEV for 1 hour at 30° C. as recommend by the manufacturer (Invitrogen) and removal of cleaved His tag by binding NiNTA resin (Generon) and collecting the cleaved protein flow through. […] Pharmacokinetic profile of IV-injected His tag cleaved AFFIMER® protein compared to C-terminally His-tagged AFFIMER® protein was evaluated.

mouse serum albumin = target: T2, mouse serum albumin (mouse, UniProt P07724 25-608); assay: Octet biolayer interferometry, pH 6.0
T2 construct: also called MSA
Method: as §1, §2

T2 sequence (P07724 25-608 limits assumed): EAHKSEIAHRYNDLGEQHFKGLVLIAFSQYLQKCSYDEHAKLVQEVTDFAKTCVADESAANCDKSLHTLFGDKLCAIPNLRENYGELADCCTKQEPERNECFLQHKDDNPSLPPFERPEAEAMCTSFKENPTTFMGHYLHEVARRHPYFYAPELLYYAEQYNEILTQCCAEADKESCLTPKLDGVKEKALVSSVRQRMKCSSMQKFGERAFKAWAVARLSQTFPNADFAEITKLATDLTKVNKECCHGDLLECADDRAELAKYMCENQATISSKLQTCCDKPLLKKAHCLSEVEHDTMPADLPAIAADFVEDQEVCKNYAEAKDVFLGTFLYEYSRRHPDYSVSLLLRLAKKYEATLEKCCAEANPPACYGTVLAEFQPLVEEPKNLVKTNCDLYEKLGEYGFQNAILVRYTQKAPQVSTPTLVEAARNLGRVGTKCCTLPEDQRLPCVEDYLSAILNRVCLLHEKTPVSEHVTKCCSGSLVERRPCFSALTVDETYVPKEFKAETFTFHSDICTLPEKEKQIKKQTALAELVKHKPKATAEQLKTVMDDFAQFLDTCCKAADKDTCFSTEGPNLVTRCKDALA

Kd (human serum albumin [1]): 3.34 nM | koff (human serum albumin [1]): 0.00563 s⁻¹ | kon (human serum albumin [1]): 1.69e+06 M⁻¹ s⁻¹ | Kd (human serum albumin [2]): 11.9 nM | Kd (mouse serum albumin): 50.5 nM
B1: HSA-41 (designed binder)
chain: MIPRGLSEAKPATPEIQEIVDKVKPQLEEKTNETYGKLEAVQYKTQVLANFFQRRWPGSTNYYIKVRAGDNKYMHLKVFNGPWKFRNTDRGADRVLTGYQVDKNKDDELTGFHHHHHH
notes: also called HSA-41 parent; HSA-41 AH parent
